From the supplement of paper PMC10126150
± gives the standard deviation of the averaged measurements.

System: ATP
Experiment: switch fluorescence ratio, 500 uM ATP over buffer (Cy3 cluster intensity, sum of 5 cycles each) (fold (ratio)); higher = stronger signal-on switching upon ATP binding; sequences stand for … in TCGTCGGCAGCGTCAGATGTGTATAAGAGACAGTTTTTTTTTTTTTTTTTTTTTTTTT…TC
Details: aptamer strand: ATP DNA aptamer (quencher-CACCTGGGGGAGTATTGCGGAGGAAGG + anchor), 100 nM annealed; ATP concentration: 500 uM
Method in brief: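 The fluorescence ratio divides summed target-cycle Cy3 intensity by summed buffer-cycle Cy3 intensity for each cluster and is averaged per switch-domain sequence. Cy3-labelled switching-strand clusters on a modified Illumina MiSeq flow-cell were annealed to 100 nM quencher-labelled ATP aptamer, then imaged in selection buffer and again after 15 min with 500 uM ATP at 22 °C. Five such cycles were run, with NaOH stripping and re-annealing between them, and clusters outside 100-1000 RFU were excluded.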
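Also: ATP exposure 15 min at 22 °C before imaging.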

Sequence | switch fluorescence ratio
GGGGGCTATG | 0.99 ± 0.015
CTTAAATTAT | 0.9967 ± 0.0089
GGTGGTTGGA | 1.02 ± 0.04
CTCGTAGGGA | 1.01 ± 0.027
ATACCAGGTT | 1.18 ± 0.063
GGGGTGTTCA | 0.999 ± 0.047
TTTTTTTAAC | 0.999 ± 0.032
AGTTGTGGGC | 0.968 ± 0.018
ATCTAACCGA | 1.06 ± 0.026
GGGCGGCGGG | 1.05 ± 0.053
TTATTCGGGG | 0.968 ± 0.054
TGAGGTGTAT | 0.98719 ± 0.00023
GGTTTCAATA | 1.0088 ± 0.00023
ATCGGGTCCA | 0.979 ± 0.028
GAACGGCATG | 1.04 ± 0.015
ACAATGTCTA | 0.962 ± 0.022
TCTGAAAAAG | 2.29 ± 1.9
TTTGGATTTC | 1 ± 0.013
GGTGGAGCCC | 0.962 ± 0.04
TAAAAAGCAT | 1.007 ± 0.0031
GAGAATAGCG | 0.988 ± 0.028
GGTTGGTGTG | 0.967 ± 0.023
GGTGGTGGGC | 0.954 ± 0.01
GGCGGCATCT | 1.01 ± 0.023
GTATTATGGG | 1 ± 0.029

Sequence | switch fluorescence ratio
AGATATTTGG | 0.994 ± 0.018
AGGGAATGTG | 0.987 ± 0.034
TGCAAGTACA | 1.41 ± 0.063
AGGGGAAAGA | 1.02 ± 0.04
GCTACGTGTT | 1.053 ± 0.007
AAGGAAACGT | 1.04 ± 0.039
AAATAAAAAG | 1.01 ± 0.027
GGTATTGTAG | 0.982 ± 0.025
GAGTTGAGGG | 0.973 ± 0.023
TTTTCATGGT | 1.01 ± 0.035
ATGAAGAGGG | 0.997 ± 0.045
TAATAGTGGG | 1.03 ± 0.041
CGAAACATGA | 1.01 ± 0.014
TGTGGGGCGG | 1.01 ± 0.051
GGTGTTCTGA | 1.01 ± 0.023
AGACTGATGA | 1.01 ± 0.014
TTGTAGTTG | 0.9952 ± 0.0062
ATGGTATGAA | 0.979 ± 0.035
TTAATACTTG | 1.03 ± 0.018
TTCTTTTTGA | 1.43 ± 0.59
GACGTATTTT | 0.9993 ± 0.0013
CATATTATGG | 0.981 ± 0.036
TCGGAAGGGC | 1.017 ± 0.0027
ACCGCACGGA | 1.55 ± 0.29
ATGGTAACGG | 0.965 ± 0.042

Sequence | switch fluorescence ratio
TGATTGGTGT | 1.02 ± 0.011
TGCTTTGTGT | 0.978 ± 0.025
ATTAGGGAGC | 0.989 ± 0.011
TCTCTTCAGC | 1 ± 0.0026
GGGTCCTGGG | 0.973 ± 0.012
GTAGGGTCAG | 0.994 ± 0.027
TCGTTACAGG | 1.045 ± 0.0051
AGTATTCTG | 0.961 ± 0.04
AGGGGTGGGG | 1 ± 0.029
TTGGTGGGGA | 0.987 ± 0.042
TCGGTTGGGT | 0.984 ± 0.038
TTCGAGACGG | 0.98 ± 0.025
GCTGGCGTCA | 1 ± 0.05
TGTTAGATGA | 0.976 ± 0.013
ACATTGGGCT | 1.01 ± 0.072
CATTGGGTGC | 1.0458 ± 0.00093
TAGATATTTA | 1.01 ± 0.0087
CTGAGTATAG | 1.01 ± 0.023
GATGGGACAG | 1.01 ± 0.0019
ACTCCTTGCT | 1.24 ± 0.018
GACCCGGCTA | 1.04 ± 0.018
TTGTTCTAAC | 1.0276 ± 0.00054
GTGGGGTCAA | 0.9985 ± 0.0085
TCCTGGGCGG | 1.077 ± 0.0028
TGGTCCATGG | 1.008 ± 0.007

Sequence | switch fluorescence ratio
CGGGGTACGC | 1 ± 0.076
CATGGTTGG | 1.01 ± 0.051
AGGCAGAATC | 1.01 ± 0.037
CTTCCGGAGG | 1.9 ± 0.048
GTGTTTGGCG | 0.9981 ± 0.0051
GGGGTTCTGC | 0.952 ± 0.039
CAGAGGGCAG | 1.02 ± 0.047
GCATGGAAGG | 1.013 ± 0.0065
AAATTTGTTA | 0.985 ± 0.04
CGTTGGGGAG | 1.02 ± 0.03
ATAAGCCCCG | 0.993 ± 0.049
TGCACCAGG | 3.29 ± 0.44
AATGATTGGG | 0.977 ± 0.02
GATGGTATTT | 0.9794 ± 0.0062
TCGATTGTGG | 1.02 ± 0.03
AGTAGAGATG | 1.03 ± 0.028
TTGGGTTCTT | 0.9937 ± 0.0066
TGTGCTATTT | 1.09 ± 0.17
CAATTTGAAG | 0.978 ± 0.051
TAAAAAGACC | 0.976 ± 0.035
ATGTCGGTTT | 1.02 ± 0.026
TTTGTTAGCA | 0.98708 ± 0.0008
TGCTTAGTC | 1.01 ± 0.022
GGTATTGCGG | 1.05 ± 0.023
TCCTCGAGTA | 1.27 ± 0.027

Sequence | switch fluorescence ratio
GTGGGGTTTC | 0.977 ± 0.032
CTCTCAAATG | 1.03 ± 0.045
GAGTTTAGTT | 0.9893 ± 0.0064
AGGGGTCAAT | 0.997 ± 0.0012
GGGAAAAGGT | 1.04 ± 0.021
CGTAAGTGCA | 1 ± 0.024
GGCATATTGT | 0.985 ± 0.025
CCTCTGATCT | 1.38 ± 0.1
TTTCTAGACA | 1.02 ± 0.021
TTGGGAACAT | 1 ± 0.016
TGGTGGTGGC | 0.981 ± 0.0072
GGTTATCGTA | 1.02 ± 0.011
TGCTGGTCTG | 1.02 ± 0.047
GGAATAAATG | 1.021 ± 0.009
TATAGTCGGG | 0.98 ± 0.025
GGGTGGCGAC | 0.988 ± 0.014
TAAAACGGTG | 1.05 ± 0.029
AGGCAGGTAC | 1.246 ± 0.0051
CGATTGAATC | 0.991 ± 0.021
GTCGAAACAT | 1.04 ± 0.075
GCATAGCGCC | 1.04 ± 0.013
GGGTTAAATT | 1.01 ± 0.038
TTAGATTGGT | 0.99 ± 0.033
GCTGTTTTTC | 0.966 ± 0.03
AGACGGATGC | 1.05 ± 0.019

Sequence | switch fluorescence ratio
TGGGTAAGTG | 0.975 ± 0.022
CGGAGGGTGG | 0.961 ± 0.041
AATTAGAATG | 0.974 ± 0.029
AGTAGGTAAA | 1.03 ± 0.023
GGTAGTTCCT | 1.02 ± 0.013
GTCATTAGCG | 0.973 ± 0.012
ACATGAAGAT | 1.031 ± 0.0025
GTGAAGAAGA | 0.991 ± 0.0048
TATTATAGAT | 0.99997 ± 0.00069
GGGGTCAGGG | 1.02 ± 0.026
TTTCACACTC | 1.02 ± 0.03
CCGGTATTGA | 0.994 ± 0.017
TCTTTTTTAG | 0.998 ± 0.036
TTGTATATTT | 0.982 ± 0.02
TACTGATTCA | 1.02 ± 0.025
GAAAGATTAT | 1.03 ± 0.02
ATGGATGGGC | 1.04 ± 0.057
TTTATGTCTG | 1.01 ± 0.039
AACGAGGAGT | 1.01 ± 0.0058
CCTGCAGGGG | 1.094 ± 0.0051
ATTTTACAGC | 1.03 ± 0.0074
TGAAGGGTCA | 0.968 ± 0.022
TTCCGGGGTT | 1.03 ± 0.022
TTTAAGTCGA | 1.02 ± 0.04
GATGGCAAGG | 1.04 ± 0.043

Sequence | switch fluorescence ratio
CCAATTTGAA | 0.9913 ± 0.0081
TTTGGGATCT | 0.9881 ± 0.0098
TAGATTTGTT | 1.01 ± 0.03
GTATTAAAGC | 1.024 ± 0.0052
TCTTTTGGGG | 1.03 ± 0.024
TAAACGCTGG | 0.999 ± 0.014
AAAATTATCT | 1.01 ± 0.021
GGTAGTTGTG | 0.982 ± 0.013
TTTTTTGGGC | 0.99 ± 0.068
GGGCATGGAG | 0.992 ± 0.02
ATGGCGTAGT | 0.975 ± 0.036
GGGCCTGGAA | 1.01 ± 0.069
GGTAACGAGG | 0.963 ± 0.039
AGGCGCAGGT | 1.01 ± 0.021
TGGGGAGGAG | 0.995 ± 0.017
AGTTGTTAGT | 0.969 ± 0.021
TAGGCGTGTC | 0.992 ± 0.016
TTTGACATGT | 0.975 ± 0.038
TTAAGGGGAT | 1 ± 0.032
AGGTAGGATT | 1.01 ± 0.05
TCGATTCGGT | 1.02 ± 0.026
TATATATGTA | 1.01 ± 0.05
CGGGTATACT | 1.1 ± 0.092
GCGTTTTGGG | 0.979 ± 0.041
AATTGCGTCA | 0.9608 ± 0.0066

Sequence | switch fluorescence ratio
TCGATAGCTG | 0.935 ± 0.046
TTTTCGGCTC | 1.04 ± 0.048
TTAGTTTTCG | 1.01 ± 0.02
CTCATCGGTC | 1.02 ± 0.035
TGATGTTTGA | 0.9947 ± 0.0094
CGTACTGAAA | 1.04 ± 0.0087
TCAATGATGG | 1 ± 0.0046
TCGATGGCGC | 1.02 ± 0.023
AAGGTTACCG | 1.04 ± 0.021
AGGGTAAGGA | 1.09 ± 0.18
CCTTTTAGCA | 2.07 ± 0.12
TTTGCATCTA | 1.0306 ± 0.00072
TGGGGTACGT | 1.02 ± 0.013
CGTACATGAG | 1.02 ± 0.037
TCCTTCTCTT | 1.05 ± 0.021
GCGTTTTATT | 0.976 ± 0.017
TTTGGCTTTG | 1.02 ± 0.05
TTCGGAGGGT | 0.9899 ± 0.0088
TTCGGCGGGT | 1.03 ± 0.025
GGGGTGCGGG | 0.99 ± 0.032
GATGCGGGGG | 1.02 ± 0.039
AGCAGGCGAA | 1.009 ± 0.0035
TTGAGGGTAT | 0.998 ± 0.023
TAGCTTGTTG | 1.02 ± 0.025
CGTTTGTCAG | 0.965 ± 0.033
